Publication PMC9962951, “Olive Polyphenol Oxidase Gene Family” (International Journal of Molecular Sciences, 2023)

Assays:
purified protein [1] = substrate: CC(C)(C)c1ccc(O)c(O)c1; assay: purified protein; assay type: biochemical, Olea europaea; details: diphenolase, 50 mM sodium phosphate pH 6.8, 1 mM SDS, 25 °C, substrate range 0.2–7 mM
purified protein [2] = substrate: NCCc1ccc(O)cc1; assay: purified protein; assay type: biochemical, Olea europaea; details: monophenolase, pH 6.8, 25 °C, substrate range 0.2–7 mM

B1: OePPO3 (Olea europaea subsp. europaea) (protein)
chain: APISAPDVTTCGPADLPQGAAPTNCCPPPTGEILDFKFPPPPTTMRVRPAAHLADEAYIAKFNRAVELMRALPDDDPRSFRQQANVHCAYCDGAYDQVGFPNLELQVHNSWLFFPFHRYYLYFFERILGNLIDDPTFAMPFWNYDAPGGMHLPAIYANQNSSLYDPLRDSAHQPPAFIDLNFSGSDANTGEAQQTSRNLTIMYRQMVSNSKTPRLFFGSPYRRGEDPNPGSGSIENIPHGPVHVWTGDRTQPNFENMGNFYSAGRDPIFFAHHSNIDRMWTLWKTLGGRRQDITDPDFLDASFVFYDENAKMVRVKVRDCLDHTKLGYVYQDVEVPWLRSRPKPRISSVVRKLKKLVRANAADIPSPKDIFPAKLDQVIKVMVKRPKKKRSKKEKDELEEILIIQGIELERDVYAKFDVFINDEDDEESTPENTEFAGSFVNVPHKHKNDKKIKTNLRLSITDILEDLDAEDDQHVLVTLVPKNFGDAITVHGIKIELDD
notes: GST tag cut off with PreScission (pGEX6P.1); E. coli BL21(DE3); about 54 kDa
**Q.** For B1, which Km (purified protein [1]) is on record?
**A.** 800 µM

**Q.** What about the Vmax (purified protein [1]) of the same protein?
**A.** 130 µmol/min/mg

**Q.** And the Km (purified protein [2])?
**A.** 700 µM

**Q.** What about the Vmax (purified protein [2]) of the same protein?
**A.** 2.7 µmol/min/mg
